Experimental data taken from the DeepSol protein solubility set.

Assay: soluble on expression in E. coli; label from the status in PepcDB or PDB records

Sequence	soluble on expression in E. coli
MSLEHILLPLDLSEVSKPLAISVAELASRHKSRVTLLHVIEEAMVIHVAAGYDVSSLIRSIEKNAREKLDKIKKLMMEKGANVVVYEDIPVGNPGTVISEVAEEVGATEIVMGSKGLGIFRILPLGSTVRETVKISRKPVIRLKTYKENGHVKVAYSPMLFRKILVGADRNTSKSMIDYAVNAASTDDGKVILAHIIEPPLEEPSYEVKNVFKYGEKAGEERGVEVEIVVARGRPDKMLTAIASQMDASSVLVGRTVERRLSELILGSTLDRLMTLCELPLIVYPLEGHHHHHH	soluble
MSLKARFLLLAALLSGVAGAYTVKKGDTLYSLARGSGLTVDALMRLNGLSTPELRVGQVIKLPGEGAATPATPAPAAPTPATPAPAAPAPAPAVPTKLPTVATAANVLKLPGVTITAPKALKMGDGFALRLSGEQAANVTVRFPSELGEDVRQPNEELRPLWSSGQYIVPGRVVLGKTTPVIYEVRLGGDVVRGQIPVGDLGQRVQHLNLPPSISKVLQDPAREAEDAAVEQAYQRRTPQQWQQPFASALASGKATSSSFGQPRTYVAGGKVAYHYGTDYPARSGTAVLAINDGTVVIAGRYPVRGGLVVIDHGAGVVSLYFHQSKVTAKVGQQIKRGQKVGEVGSTGLSAGPHLHLEVRVRGEGTNPAGWMGKLWPEGHHHHHH	not soluble
MIDTTVFQNKTAVYYTLGCKLNFSETSTIGKILREAGVRTARKGEKADICVVNTCSVTEMADKKCRQAIHRLVKQHPGAFVVVTGCYAQLKPGDVAKIKGVDVVLGAEQKGDLLQYLGDLHKHEEGEAFTTTTKDIRSFSPSCSRGDRTRFFLKVQDGCDYFCSYCTIPFARGRSRNGTVASMVEQARQAAAEGGKEIVLTGVNIGDFGKTTGETFFDLVKALDQVEGIERYRISSIEPNLLTDEIIEFVSRSRRFMPHFHIPLQSGCDEVLKLMRRRYDTALFASKVKKIKEVMPDAFIGVDVIVGTRGETEEYFEQAYQFISGLDVTQLHVFSYSERPGTQALKIDYVVSPEEKHQRSQRLLTLSDEKTRAFYTRHIGQTMQVLMEKSKAGTPMHGFTANYIRVEVENDESLDNQMINVRLGEFNEDMTALKGTILMNYEVLEHHHHHH	soluble
MTLDLDNMTQAEFDEVMAEIQLQSPNIFQLISDFVNKKVTSVEIDDLLNMKRAETGKALSPLQIQELQYMLEDFSPELIHEALKEAVSQGKANFAYIKVILNRWKQDNLLTVELVRNSRAAREAKKQQTNQLEPTSYEDWIPTQEKPF	not soluble
MCMHLSSPALPIGGFSYSQGLEAAIELGLVHDEASTLAWIESQLVTVMARAEAPLWLLFEAWRAGDDAAAHGWNQWFHASRETRELRQETEQMGRSLARLAQELGWGTAATRAAVAALRPATLPAVHACACAMWALPREAGLGAYVFSWLENQVAAAIKGVPLGQMAGQRMLERLRAGLPAVLADARARAGATPPRLDTFAPQYALVSARHETQFSRLFRSAAALEHHHHHH	not soluble
SKAWLHQYSVVGRKIPTQEEPEPPIYRLKIFAPNVVNAKSRFWYFLRKLKRVKKSSGEILNISEIFEKKSTQVKNYGIWIRYKSRSDTINMYREYRDVTVNGAVEQMYKDMSGRHRARWSSIWVLKAMPVAAKDCRRSKVTQFHDSKIKFALPHMRPRAPLKKYNTPFKAKRPTTIVQ	soluble
MGHHHHHHSHMTSEQIPNRVLLFDGVCNLCNGAVQFIIKRDPDGLISFTSLQSETGQSLLKKSGLPTDRFDSFVFIEDGQVYTKSTAAIKVFRHLRGPWRLFVLFFAVPKPVRDMVYSFIAKNRYKWFGKKNECMLPSPSIKKRFLP	not soluble
MHDNTIKSISKDYFDYLQTESKFIPLENETIEFYSPIVDYFGDSISVNISFSGDRYKLTDHGETLWNMEQLGIDLTSNKKQKKYQLLNNIVQNYSLVIENKHINFYTNRINLSQAIHDYVLAISEISYLGILKKENIKSLFKDEVMQYFLSNRKIYPNIFPEFKVEGKSKLIHSFEAVFPGEATEYVKTIKRIDKNNAKNVLFDWNDVEIHRNKNFDSNARLNIITEQQDDISEAVSTMLSQYNVEVFSFENKKQLEEKFSNV	not soluble
MGSDKIHHHHHHMSRFVGTETEYGIATPSNTMLSPIVTSTHAVVAFSLGERCASQARWDFSEESPLRDLRGFDLRRYRTVPVVDPHALGVANSVLINGGRFYVDHAHPEYSSPETSSAFQAMLYDAAGDVVMNRAVELVAENSQRKHSVLEHHDPCPPLKIYKNNVDGKGASYGSHENYLYNRETPFEEISSGLTPFFITRQVIIGAGRVGIGQYGEKSGFQISQRADYIEQEISLETTLNRGIINTRDEPHADSEHFGRLHVIIGDANMSQTSNFLKIGMTTLVLDAIEAGVDFSDLAVANPVAEVSAISHDLTLTHKIVLRDGRTLTALELLDEYRKRVSPQSDDDLDVLKEWSEILVLLQKGPFYAADRLDWCAKWQLISSFIKRGVSIDDPKIQLIDLQYADIDPAKSLYHALVRKGRMRTLVSTEQINNAAWSPPKGSRAYLRGSLISRFPDSVVQASWDSITLQTSRDQATKIKMPVVQSLSAEAIATIDTASSVKEVATILSQWLPVTTISLT	not soluble
MGSDKIHHHHHHMNFNELKTFVALVETKHFTKTADRLYISQPTVSLHLKHLEEHFGQSLIHRHTFNKTIEISEAGWIVYRHAKEILHQAIRLEQEIDELEGITRGTLRIAATHTIYEAMLEEMIHDFLLVYPDVSVDARVMNQEQVEQALLHYEIDLGMVEGLHRSHQIEAIPFATDRLRIIGHHHLVPEQATWIYREEGSAARLALETWLQTQAIVPKRIITVYSNRLIKQLIKNGTGISILSERLAGSLLESERFQTYDDSQIDPRMFQFITLKGETTRLSQKWINQHGGSD	not soluble
MHTVAVSGPPETGFRSVVCARRWLANPYAPGRPTVRCMNVDDHAEELASDLGVDKAEVKENLQNLVEYSVPLEEAKRSLRRKYGDDDGAPSGGPTAVDIADVDTDSGNVTVTATVLTAGKRSIRYQGDDHVIGEGELADETGRISYTAWEEFGLEPGDTVTIGNASVREWEGSPELNFGESATVTSADGDIEMAAEVGGDRDLAALSAGDRGRNVEAVVTEVEERTIDGRDGETEILSGVLGDETARLPFTDWDPHGEIEAGASVRIEDVYVREFRGVPSVNVSEFSTVERLDHEVEVGGPTRMAIRDAVARGGAYDVELVGSVIDIRDGSGLIKRCPDCGRVVQTGQCRQHGAVEAEDDLRVKAVLDDGTDSVTAILDRELTADVYGGTLADAREQAREAMDHSVVADTIAEDVVGREFRVRGHLSVDEYGANLETIAFAERDDDPAARAAAFLAEVDALEHHHHHH	not soluble
MSLISLSFFPGAKIGVLGLNGAGKSTLLRIMAGIDKDIDGEARPQPGLKVGYLPQEPKLDESKTVREVVEEAVADVAYALKRLDEVYAAYAEPDADFDALAKEQGELEALIQAKNGHNLDNALERAADALRLPEWDAQVKYLSGGERRRVAICRLLLENPDMLLLDEPTNHLDAESVAWLERFLVDYAGTVVAITHDRYFLDNAAGWILELDRGEGIPWQGNYTSWLEQKDARLKQEASQEKARQKTIEKELEWVRQNPKGRQAKSKARMARFEELQNTEHQKRNETNELFIPPGERLGDKVIEVKNLTKSFDGRVLIDDLSFSMPKGAIVGIIGPNGAGKSTLFKMLSGVEKPDSGTIELGDTVKLASVDQFRDSMNDKHTVFQEISEGADIIRINNFEIPARAYCSRFNFKGVDQQKVIGELSGGERNRVHLAKLLKAGGNVLLLDEPTNDLDVETLRALEEALLEFPGCAMVISHDRWFLDRIATHILDYRDEGKVNFYEGNYTEYMEWLKQTLGAQAAEPHRIKYKRITK	not soluble
MSATVVDAVNAAPLSGSKEMSLEEPKKMTREDWRKKKELEEQRKLGNAPAEVDEEGKDINPHIPQYISSVPWYIDPSKRPTLKHQRPQPEKQKQFSSSGEWYKRGVKENSVITKYRKGACENCGAMTHKKKDCFERPRRVGAKFTGTNIAPDEHVQPQLMFDYDGKRDRWNGYNPEEHMKIVEEYAKVDLAKRTLKAQKLQEELASGKLVEQANSPKHQWGEEEPNSQTEKDHNSEDEDEDKYADDIDMPGQNFDSKRRITVRNLRIREDIAKYLRNLDPNSAYYDPKTRAMRENPYANAGKNPDEVSYAGDNFVRYTGDTISMAQTQLFAWEAYDKGSEVHLQADPTKLELLYKSFKVKKEDFKEQQKESILEKYGGQEHLDAPPAELLLAQTEDYVEYSRHGTVIKGQERAVACSKYEEDVKIHNHTHIWGSYWKEGRWGYKCCHSFFKYSYCTGEAGKEIVNSEECIINEITGEESVKKPQTLMELHQEKLKEEKKKKKKKKKKHRKSSSDSDDEEKKHEKLKKALNAEEARLLHVKETMQIDERKRPYNSMYETREPTEEEMEAYRMKRQRPDDPMASFLGQ	not soluble
MSKGASAPQQQSAFKQLYTELFNNEGDFSKVSSNLKKPLKCYVKESYPHFLVTDGYFFVAPYFTKEAVNEFHAKFPNVNIVDLTDKVIVINNWSLELRRVNSAEVFTSYANLEARLIVHSFKPNLQERLNPTRYPVNLFRDDEFKTTIQHFRHTALQAAINKTVKGDNLVDISKVADAAGKKGKVDAGIVKASASKGDEFSDFSFKEGNTATLKIADIFVQEKGKDALNKAADHTDGAKVKGGAKGKGKAAAKAAKGKKLSAKKGDSSAADVRKSVDKIVKYTPSKGSRKDTPQKSQAPAAGKSSAKKGGKKAVPSAPSPSGKKSALTTDKMTMAQFVKYLDWHEKKKGGKVSSGGKVLGKRSAGKASATSGKASKASKKTAAKK	soluble
MSFEEKTFKWLMNQKFYHGYLPREDLPYVLKKKGDFIFRVTERTVGKEQKKDIVLSIAWPTESVAMIDTKDIKNYLIERSANSVWLDLKISFHSIDALYNHYRKNELVHPNLRIKLGRPICLFFWEFKHSQINLIKKVGKGAYGEVFKGTVTRGNKTFNGAIKAMRKDLDAGNEKMKEVMAEARLMRSLNHPNIVRCRGIAVLEQPVYIVIEFINGGGLDSYLKKNSQTLTMDQKNRMAISAAWGIEFMHSHDIIHRDIAARNCLYDNKNLVKLSDFGLSRKGSVYRMKKAMKMPTKWLAPESLTTFTFSGASDVYTFGVLLYEIYTCQEPYLAVKAGEAKRYILSGAFPNFTKQAPPELNEIVKKSIYQLDPAKRDTMKVIVKKLETWLDVELVLDENEKPDIDPESNRFNGNMPIRVDSSTKKMRNDTVCIPPPETATVALPNSLPPITVSARSKNSRKSTLKRKKKKTSKDSSMTTTTTNTNESEPPADGQVISSETMSVANKMVSDAKGGSPEMLTPSLEELKPSSQENETFLNEKNSTAKN	not soluble
MGSDKIHHHHHHMAKAKTQYVCQNCGYISATYLGRCPNCGGWNTLVEETVSSSKSVPRQTAAGSKVKPTRMNDVTITKETRVKTGLDELNRVLGGGVVPGSLVLIGGDPGIGKSTLLLQVSGQLANTGGTVLYVSGEESASQIKMRAGRLGVANSGMYLYPETDMPSIEDVINQMQPDYVVIDSVQTMNVPEMNSAVGSVTQIREVTAELMRIAKSKGVTIFIVGHVTKEGAIAGPKILEHMVDTVLYFEGDMHHTYRILRSVKNRFGSTNEIGIFEMHQDGLQEVANPSEIFLEERLAGATGSAVVVSMEGTRPILVEIQALISPTMYGNAKRTSSGLDHNRVSLIMAVLEKRANLMLQNQDAYLKATGGVKLDEPAIDLAMAVAIASSYRDKEISPTDCFVGEIGLTGEVRRVNRIEERVKEAAKLGFKRIFVPRNNLQGWHAPKDIQVIGVTSIAEALHKVFN	not soluble
MSAQAKPRSEMTAEELAAKEDEEFNVGPLSILTNSVKNNHQVLINCRNNKKLLGRVKAFDRHCNMVLENVKEMWTEVPKTGKGKKKAKSVAKDRFISKMFLRGDSVILVVKNPLAQAE	not soluble
